The record followed here is patent US20150166668A1 (PROMIS NEUROSCIENCES, published 2015).

For experiment [1], the target named is PrP on the surface of normal cells (human) (UniProt P04156).
For experiment [2] the target is unchanged. Description: flow cytometry on HOEpiC Donor 1 normal ovarian epithelium. For orientation: In flow cytometry, cells or beads pass a laser one at a time.
The target is the same in experiment [3]. Description: flow cytometry on HOEpiC Donor 2 normal ovarian epithelium.
Experiment [4] shares this target. Description: flow cytometry on HOEpiC Donor 3 normal ovarian epithelium.
For experiment [5], the target named is T1, BSA-DSE3 peptide (human).
T1 construct: also called immunogen peptides; specific peptide
Put plainly: ELISA, plate coated with BSA-peptide.

Consider Anti-PrP 6H4 antibody, for which the EC50 in experiment [1] is 17 nM. Further, the values for the Ave S/N in experiment [2], in experiment [3] and in experiment [4] were 8.31, 14.2 and 15.1, respectively.

B1: DSE3 ab120 (antibody, V domains shown)
VH: QSVEESGGHLVTPGTPLTLTCTVSGIDLSTYAMGWVRQAPGKGLEWIGVITKSGNTYYASWAKGRFAISKTSTTVDLKITSPTTEDTATYFCGRYGIGVSYYDIWGPGTLVTVSS
VL: AQVLTQTPSPVSAAVGGTVTINCQSSQSLYNKNWLSWYQKKPGQPPKLLIYKASTLESGVSSRFKGSGSGTQFTLTISGVQCDDAATYYCQGEFSCSSADCTAFGGGTEVVVKG
As to B1, the response in experiment [5] was half-maximal at 0.0655 nM (EC50).

Usually EC50 stands for the concentration at which the effect is half-maximal.
